Values quoted from earlier work in paper PMC3433420.
Like-named read-outs stand apart in the source and are kept apart here.

What was measured:
Settings in all cases: cited from earlier work
[1] = target: PIK3R1-NC (Homo sapiens) (UniProt P27986)
[2] = target: PIK3R2-NC (Homo sapiens) (UniProt O00459)
[3] = target: SLA (Homo sapiens) (UniProt Q13239)
[4] = target: GRB7 (Homo sapiens) (UniProt Q14451)
[5] = target: TENC1 (Homo sapiens) (UniProt Q63HR2)
[6] = target: PIK3R1-NC (Homo sapiens) (UniProt P27986); remark: listed apart in the source
[7] = target: TENC1 (Homo sapiens) (UniProt Q63HR2); remark: listed apart in the source
[8] = target: PIK3R3-NC (Homo sapiens) (UniProt Q92569)
[9] = target: RASA1-N (Homo sapiens) (UniProt P20936)
Chain of RASA1-N (Homo sapiens) (P20936 176-446): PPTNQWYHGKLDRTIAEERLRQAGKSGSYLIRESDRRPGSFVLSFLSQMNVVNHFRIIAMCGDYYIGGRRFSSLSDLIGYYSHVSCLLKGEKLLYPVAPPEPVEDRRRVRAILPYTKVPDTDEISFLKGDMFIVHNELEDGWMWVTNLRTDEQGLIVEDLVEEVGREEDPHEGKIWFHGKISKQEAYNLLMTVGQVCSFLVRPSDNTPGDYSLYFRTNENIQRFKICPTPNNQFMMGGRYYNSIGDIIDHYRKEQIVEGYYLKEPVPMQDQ

[10] = target: SYK-NC (Homo sapiens) (UniProt P43405)
[11] = target: PIK3R2-N (Homo sapiens) (UniProt O00459)
Chain of PIK3R2-N (Homo sapiens) (O00459 325-721): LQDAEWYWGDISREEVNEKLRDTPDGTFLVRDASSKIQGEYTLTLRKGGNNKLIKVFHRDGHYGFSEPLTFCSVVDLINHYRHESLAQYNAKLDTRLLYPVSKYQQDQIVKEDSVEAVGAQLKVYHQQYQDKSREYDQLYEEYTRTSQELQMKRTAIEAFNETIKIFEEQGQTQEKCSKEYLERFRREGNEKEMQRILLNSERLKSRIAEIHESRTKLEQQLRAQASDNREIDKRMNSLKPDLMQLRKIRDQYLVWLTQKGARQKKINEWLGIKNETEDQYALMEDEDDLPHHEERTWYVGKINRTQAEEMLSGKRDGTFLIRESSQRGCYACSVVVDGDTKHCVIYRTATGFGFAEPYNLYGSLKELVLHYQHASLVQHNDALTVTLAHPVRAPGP

[12] = target: PIK3R3-NC (Homo sapiens) (UniProt Q92569); remark: listed apart in the source
[13] = target: ABL2 (Homo sapiens) (UniProt P42684)
Chain of ABL2 (Homo sapiens) (P42684 168-268): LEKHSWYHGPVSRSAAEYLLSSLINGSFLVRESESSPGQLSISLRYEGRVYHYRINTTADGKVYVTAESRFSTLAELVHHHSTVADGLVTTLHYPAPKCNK

[14] = target: PIK3R1-N (Homo sapiens) (UniProt P27986)
Chain of PIK3R1-N (Homo sapiens) (P27986 328-723): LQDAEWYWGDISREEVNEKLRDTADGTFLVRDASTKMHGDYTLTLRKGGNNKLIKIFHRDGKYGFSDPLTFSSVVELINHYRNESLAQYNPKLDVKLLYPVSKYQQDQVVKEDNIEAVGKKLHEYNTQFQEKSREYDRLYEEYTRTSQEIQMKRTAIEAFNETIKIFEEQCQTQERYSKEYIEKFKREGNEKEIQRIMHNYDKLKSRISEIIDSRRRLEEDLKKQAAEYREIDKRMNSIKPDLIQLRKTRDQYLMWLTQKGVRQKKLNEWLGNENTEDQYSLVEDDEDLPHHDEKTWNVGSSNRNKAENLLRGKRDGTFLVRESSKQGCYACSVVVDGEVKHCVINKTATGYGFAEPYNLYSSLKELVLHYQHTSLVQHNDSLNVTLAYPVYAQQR

[15] = target: PIK3R3-C (Homo sapiens) (UniProt Q92569)
[16] = target: PIK3R2-N (Homo sapiens) (UniProt O00459); remark: listed apart in the source
[17] = target: PIK3R3-N (Homo sapiens) (UniProt Q92569)
[18] = target: PIK3R3-N (Homo sapiens) (UniProt Q92569); remark: listed apart in the source
[19] = target: SHC2-PTB (Homo sapiens) (UniProt P98077)
Chain of SHC2-PTB (Homo sapiens) (P98077 482-582): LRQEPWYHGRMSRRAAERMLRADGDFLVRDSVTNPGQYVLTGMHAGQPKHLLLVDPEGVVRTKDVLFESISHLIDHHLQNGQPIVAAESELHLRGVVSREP

[20] = target: PLCG2-NC (Homo sapiens) (UniProt P16885)
Chain of PLCG2-NC (Homo sapiens) (P16885 527-740): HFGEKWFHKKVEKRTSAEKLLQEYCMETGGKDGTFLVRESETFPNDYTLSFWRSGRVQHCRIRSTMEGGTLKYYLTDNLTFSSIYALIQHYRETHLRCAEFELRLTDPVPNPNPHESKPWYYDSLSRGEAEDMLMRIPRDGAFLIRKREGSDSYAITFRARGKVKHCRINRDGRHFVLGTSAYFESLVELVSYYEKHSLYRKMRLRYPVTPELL

[21] = target: SYK-NC (Homo sapiens) (UniProt P43405); remark: listed apart in the source
[22] = target: RASA1-N (Homo sapiens) (UniProt P20936); remark: listed apart in the source
[23] = target: FES (Homo sapiens) (UniProt P07332)
Chain of FES (Homo sapiens) (P07332 455-554): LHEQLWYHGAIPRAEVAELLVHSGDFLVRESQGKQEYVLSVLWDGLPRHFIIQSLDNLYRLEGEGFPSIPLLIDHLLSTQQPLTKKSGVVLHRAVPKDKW

[24] = target: YES1 (Homo sapiens) (UniProt P07947)
Chain of YES1 (Homo sapiens) (P07947 153-260): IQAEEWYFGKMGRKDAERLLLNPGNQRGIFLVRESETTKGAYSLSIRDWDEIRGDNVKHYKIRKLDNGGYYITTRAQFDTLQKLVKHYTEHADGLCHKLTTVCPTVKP

[25] = target: PIK3R1-NC (Homo sapiens) (UniProt P27986); remark: listed apart in the source
[26] = target: PLCG2-NC (Homo sapiens) (UniProt P16885); remark: listed apart in the source
[27] = target: TNS4 (Homo sapiens) (UniProt Q8IZW8)
Chain of TNS4 (Homo sapiens) (Q8IZW8 444-561): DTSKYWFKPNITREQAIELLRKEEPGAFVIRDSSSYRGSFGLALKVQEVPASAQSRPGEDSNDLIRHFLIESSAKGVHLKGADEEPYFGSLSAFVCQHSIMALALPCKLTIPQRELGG

[28] = target: SRC (Homo sapiens) (UniProt P12931)
[29] = target: SH2B3 (Homo sapiens) (UniProt Q9UQQ2)
Chain of SH2B3 (Homo sapiens) (Q9UQQ2 359-467): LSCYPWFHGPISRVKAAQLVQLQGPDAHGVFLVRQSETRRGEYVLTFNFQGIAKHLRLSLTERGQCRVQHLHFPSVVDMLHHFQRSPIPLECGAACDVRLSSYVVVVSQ

[30] = target: LCK (Homo sapiens) (UniProt P06239)
Chain of LCK (Homo sapiens) (P06239 122-229): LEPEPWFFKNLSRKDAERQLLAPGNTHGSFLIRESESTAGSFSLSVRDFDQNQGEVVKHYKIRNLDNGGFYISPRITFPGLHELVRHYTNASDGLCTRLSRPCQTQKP

[31] = target: RASA1-N (Homo sapiens) (UniProt P20936); remark: listed apart in the source
[32] = target: GRB10 (Homo sapiens) (UniProt Q13322)
Chain of GRB10 (Homo sapiens) (Q13322 488-579): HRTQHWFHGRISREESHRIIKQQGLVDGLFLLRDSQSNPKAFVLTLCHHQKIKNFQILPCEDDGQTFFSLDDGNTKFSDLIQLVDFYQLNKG

[33] = target: ABL2 (Homo sapiens) (UniProt P42684); remark: listed apart in the source
[34] = target: ZAP70-NC (Homo sapiens) (UniProt P43403)
Chain of ZAP70-NC (Homo sapiens) (P43403 5-259): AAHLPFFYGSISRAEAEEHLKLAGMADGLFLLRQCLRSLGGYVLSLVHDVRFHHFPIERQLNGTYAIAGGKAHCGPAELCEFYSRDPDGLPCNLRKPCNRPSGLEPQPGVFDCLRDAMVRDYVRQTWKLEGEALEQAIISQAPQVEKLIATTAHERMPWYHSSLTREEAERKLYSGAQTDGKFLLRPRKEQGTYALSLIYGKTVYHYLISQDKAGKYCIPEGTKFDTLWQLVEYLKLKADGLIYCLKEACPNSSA

[35] = target: SH2B (Homo sapiens) (UniProt Q9NRF2)
[36] = target: BLK (Homo sapiens) (UniProt P51451)
Chain of BLK (Homo sapiens) (P51451 119-225): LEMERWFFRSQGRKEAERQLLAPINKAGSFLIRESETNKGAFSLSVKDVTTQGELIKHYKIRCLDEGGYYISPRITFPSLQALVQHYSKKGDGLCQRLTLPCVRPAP

[37] = target: SH2D2A (Homo sapiens) (UniProt Q9NP31)
Chain of SH2D2A (Homo sapiens) (Q9NP31 90-191): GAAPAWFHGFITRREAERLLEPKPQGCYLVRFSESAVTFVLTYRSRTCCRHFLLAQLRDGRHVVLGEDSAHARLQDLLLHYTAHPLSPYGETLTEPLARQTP

[38] = target: SLA (Homo sapiens) (UniProt Q13239); remark: listed apart in the source
[39] = target: SOCS1 (Homo sapiens) (UniProt O15524)
Chain of SOCS1 (Homo sapiens) (O15524 74-179): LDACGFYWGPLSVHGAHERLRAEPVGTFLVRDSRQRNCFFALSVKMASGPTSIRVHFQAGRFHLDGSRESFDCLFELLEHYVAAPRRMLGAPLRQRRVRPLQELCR

[40] = target: SHC1-PTB (Homo sapiens) (UniProt P29353)
Chain of SHC1-PTB (Homo sapiens) (P29353 483-583): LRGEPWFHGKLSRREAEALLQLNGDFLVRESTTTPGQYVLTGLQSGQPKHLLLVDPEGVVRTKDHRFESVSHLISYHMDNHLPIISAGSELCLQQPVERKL

[41] = target: PTPN6-NC (Homo sapiens) (UniProt P29350)
Chain of PTPN6-NC (Homo sapiens) (P29350 1-218): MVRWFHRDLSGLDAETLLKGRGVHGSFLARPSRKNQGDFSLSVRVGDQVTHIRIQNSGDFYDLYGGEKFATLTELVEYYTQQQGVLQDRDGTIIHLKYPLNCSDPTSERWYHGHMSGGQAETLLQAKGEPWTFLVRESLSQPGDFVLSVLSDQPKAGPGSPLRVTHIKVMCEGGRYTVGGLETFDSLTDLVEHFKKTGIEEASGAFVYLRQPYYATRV

[42] = target: ABL2 (Homo sapiens) (UniProt P42684); remark: listed apart in the source
[43] = target: SH2D3C (Homo sapiens) (UniProt Q8N5H7)
Chain of SH2D3C (Homo sapiens) (Q8N5H7 215-324): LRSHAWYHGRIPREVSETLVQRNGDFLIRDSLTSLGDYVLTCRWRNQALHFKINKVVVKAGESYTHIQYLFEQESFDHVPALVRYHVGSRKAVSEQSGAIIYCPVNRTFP

[44] = target: RASA1-NC (Homo sapiens) (UniProt P20936)
Chain of RASA1-NC (Homo sapiens) (P20936 176-446): as the sequence (P20936 176-446) above

[45] = target: ITK (Homo sapiens) (UniProt Q08881)
Chain of ITK (Homo sapiens) (Q08881 234-343): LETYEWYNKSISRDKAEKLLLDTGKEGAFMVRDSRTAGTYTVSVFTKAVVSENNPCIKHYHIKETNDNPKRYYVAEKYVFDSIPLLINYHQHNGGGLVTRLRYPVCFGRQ

[46] = target: GRB7 (Homo sapiens) (UniProt Q14451); remark: listed apart in the source
[47] = target: SOCS2 (Homo sapiens) (UniProt O14508)
Chain of SOCS2 (Homo sapiens) (O14508 43-161): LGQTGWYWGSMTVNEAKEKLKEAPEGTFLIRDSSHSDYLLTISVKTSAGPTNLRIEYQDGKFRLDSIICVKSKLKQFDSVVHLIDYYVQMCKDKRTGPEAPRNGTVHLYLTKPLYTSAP

[48] = target: RASA1-NC (Homo sapiens) (UniProt P20936); remark: listed apart in the source
[49] = target: GRB10 (Homo sapiens) (UniProt Q13322); remark: listed apart in the source
[50] = target: PIK3R3-NC (Homo sapiens) (UniProt Q92569); remark: listed apart in the source

Chain of PIK3R1-NC (Homo sapiens) (P27986 328-723): as the sequence (P27986 328-723) above
Chain of SLA (Homo sapiens) (Q13239 79-180): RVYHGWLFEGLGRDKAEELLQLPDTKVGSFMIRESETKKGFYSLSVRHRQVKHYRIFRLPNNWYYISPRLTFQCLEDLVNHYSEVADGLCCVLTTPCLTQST
Chain of GRB7 (Homo sapiens) (Q14451 426-532): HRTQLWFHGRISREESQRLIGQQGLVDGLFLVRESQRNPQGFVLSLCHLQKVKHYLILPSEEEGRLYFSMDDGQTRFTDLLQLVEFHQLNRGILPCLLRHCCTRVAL
Chain of TENC1 (Homo sapiens) (Q63HR2 1135-1252): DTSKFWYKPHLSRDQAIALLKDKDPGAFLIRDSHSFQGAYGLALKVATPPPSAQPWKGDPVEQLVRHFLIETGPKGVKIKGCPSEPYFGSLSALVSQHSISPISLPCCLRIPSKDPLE
Chain of PIK3R2-NC (Homo sapiens) (O00459 325-721): as the sequence (O00459 325-721) above

In the case of …pYEYMNRQR, the apparent Kd (screen) [1] is given as 43 nM, the apparent Kd (screen) [2] is given as 99 nM and the apparent Kd (screen) [3] is given as 2000 nM. For the same substance, the apparent Kd (screen) [4] was 999 nM, the apparent Kd (screen) [5] was 1710 nM and the apparent Kd (screen) [6] was 33 nM. The apparent Kd (screen) [7] was 1620 nM, the apparent Kd (screen) [8] was 122 nM and the apparent Kd (screen) [9] was 1040 nM. For the same substance, the apparent Kd (screen) [10] was 1300 nM, the apparent Kd (screen) [11] was 151 nM and the apparent Kd (screen) [12] was 151 nM. For the same substance, the apparent Kd (screen) [13] was 357 nM, the apparent Kd (screen) [14] was 296 nM and the apparent Kd (screen) [15] was 130 nM. The apparent Kd (screen) [16] was 199 nM, the apparent Kd (screen) [17] was 157 nM and the apparent Kd (screen) [18] was 171 nM.

In the case of …pYRALMDEEd, the apparent Kd (screen) [19] is given as 978 nM, the apparent Kd (screen) [20] is given as 1390 nM and the apparent Kd (screen) [21] is given as 905 nM. For the same substance, the apparent Kd (screen) [22] was 709 nM, the apparent Kd (screen) [23] was 1230 nM and the apparent Kd (screen) [24] was 724 nM. For the same substance, the apparent Kd (screen) [25] was 239 nM, the apparent Kd (screen) [26] was 1500 nM and the apparent Kd (screen) [27] was 2000 nM. The apparent Kd (screen) [28] was 1140 nM, the apparent Kd (screen) [29] was 1360 nM and the apparent Kd (screen) [30] was 2000 nM. The apparent Kd (screen) [31] was 1060 nM, the apparent Kd (screen) [32] was 1690 nM and the apparent Kd (screen) [33] was 1500 nM. For the same substance, the apparent Kd (screen) [34] was 1650 nM, the apparent Kd (screen) [35] was 2000 nM and the apparent Kd (screen) [36] was 191 nM. For the same substance, the apparent Kd (screen) [37] was 2000 nM, the apparent Kd (screen) [38] was 1600 nM and the apparent Kd (screen) [39] was 2000 nM. The apparent Kd (screen) [40] was 1150 nM, the apparent Kd (screen) [41] was 2000 nM and the apparent Kd (screen) [42] was 2000 nM. For the same substance, the apparent Kd (screen) [43] was 2000 nM, the apparent Kd (screen) [44] was 1380 nM and the apparent Kd (screen) [45] was 277 nM. The apparent Kd (screen) [46] was 755 nM, the apparent Kd (screen) [47] was 2000 nM and the apparent Kd (screen) [48] was 1650 nM. For the same substance, the apparent Kd (screen) [49] was 2000 nM and the apparent Kd (screen) [50] was 968 nM.
